Patent US20240317847A1 (Bayer, published 2024)

T1: murine IL-11 (mouse, UniProt P47873 22-199)
T1 sequence: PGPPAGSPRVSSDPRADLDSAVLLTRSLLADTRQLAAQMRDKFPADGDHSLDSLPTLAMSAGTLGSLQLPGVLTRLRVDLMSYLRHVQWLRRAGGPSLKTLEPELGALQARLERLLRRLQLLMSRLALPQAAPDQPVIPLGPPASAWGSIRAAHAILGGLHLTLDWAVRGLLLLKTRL

T2: human IL-11 (human, UniProt P20809 22-199)
T2 sequence: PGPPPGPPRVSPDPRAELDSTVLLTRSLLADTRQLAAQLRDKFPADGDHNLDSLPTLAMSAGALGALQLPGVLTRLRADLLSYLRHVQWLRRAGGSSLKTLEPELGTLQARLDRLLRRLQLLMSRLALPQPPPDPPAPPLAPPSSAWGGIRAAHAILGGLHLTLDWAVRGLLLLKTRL

T3: rat IL-11 (rat, UniProt Q99MF5 22-199)
T3 sequence: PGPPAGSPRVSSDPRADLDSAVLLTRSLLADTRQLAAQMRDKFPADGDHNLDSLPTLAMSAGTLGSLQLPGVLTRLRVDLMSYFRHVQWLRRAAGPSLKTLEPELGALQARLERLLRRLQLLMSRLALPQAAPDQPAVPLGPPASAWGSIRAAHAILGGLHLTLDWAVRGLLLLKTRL

T4: cynomolgus IL-11 (cynomolgus, UniProt P20808 22-199)
T4 sequence: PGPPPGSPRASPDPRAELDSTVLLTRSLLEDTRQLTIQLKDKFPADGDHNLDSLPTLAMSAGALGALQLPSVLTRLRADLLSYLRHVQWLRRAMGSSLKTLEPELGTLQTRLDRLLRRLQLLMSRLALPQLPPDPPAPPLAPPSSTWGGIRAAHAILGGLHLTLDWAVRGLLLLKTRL


What was measured:
[1] = molecular target: T1, murine IL-11; test: cell-based or functional assay
[2] = molecular target: T2, human IL-11; test: cell-based or functional assay
[3] = molecular target: T3, rat IL-11; test: cell-based or functional assay
[4] = molecular target: T4, cynomolgus IL-11; test: cell-based or functional assay
[5] = molecular target: T1, murine IL-11; test: Tri-complex ELISA, mIL-11 + mIL-11Ra-Fc + mgp130-Fc, inhibition of complex formation
[6] = molecular target: T1, murine IL-11; test: SPR (Biacore), 37 C, antibody captured via anti-Fc, IL-11 as analyte
Procedure: (§1) To assess the binding kinetics and affinity of anti-IL-11 bispecific antibodies as well as their species cross-reactivity profile, binding assays were conducted using surface plasmon resonance (SPR). […] Antibodies were captured either via anti-human Fc IgGs (“Human antibody capture kit”, Order No. BR100839, Cytiva) or via anti-mouse Fc IgGs (“Mouse antibody capture kit, Order No. BR100383, Cytiva) covalently amine coupled to a Series S CM5 sensor chip (Cytiva) depending on the isotype. The amine coupling was carried out according to the manufacturer's instructions using 1-ethyl-3-(3-dimethylaminopropyl) carbodiimide hydrochloride (EDC), N-hydroxysuccinimide (NHS) and ethanolamine HCl, pH 8.5 (“Amine Coupling Kit” BR-1000-50, Cytiva.). Human, mouse, cynomolgus or rat IL-11 was used as analyte at several dilutions within the concentration range from 0.05-200 nM. For binding assays with only one concentration 200 nM IL-11 was used. The sensor surface was regenerated with glycine pH 1.7 after each antigen injection. Obtained sensorgrams were double referenced (subtraction of reference flow cell signal and buffer injection) and were fitted to a 1:1 Langmuir binding model to derive kinetic data using the Biacore T200 Evaluation software or the Biacore Insight software.
(§2) If no value is reported, there was either no binding or very low binding and multiphasic binding behavior.

[7] = molecular target: T3, rat IL-11; test: as above
Procedure: as §1, §2

[8] = molecular target: T4, cynomolgus IL-11; test: as above
Procedure: as §1, §2

[9] = molecular target: T2, human IL-11; test: as above
Procedure: as §1, §2

Efficacy (%), Stat3 reporter gene assay [1] [%] | IC50, Stat3 reporter gene assay [1] [nM] | Efficacy (%), Stat3 reporter gene assay [2] [%] | Efficacy (%), Stat3 reporter gene assay [3] [%] | Efficacy (%), Stat3 reporter gene assay [4] [%] | IC50 [5] [nM] | Kd [6] [nM] | IC50, Stat3 reporter gene assay [2] [nM] | IC50, Stat3 reporter gene assay [3] [nM] | IC50, Stat3 reporter gene assay [4] [nM] | Efficacy (%) [5] [%] | Kd [7] [nM] | Kd [8] [nM] | Kd [9] [nM] | Binder
59.4 | 16 | 47.8 | 31.8 | 47.7 | 33 | 41 | – | – | – | – | – | – | – | TPP-18087 (antibody, mouse IgG1, V domains shown, mIgG1, Lambda) VH: EVQLLESGGGLVQPGGSLRLSCAASGFTFSHYDMNWLRQAPGKGLEWVGVISYDGSNKFYADFVKGRFTISRDNSKNTLYLQMNSLRAEDTAVYYCARTPGSHFDYWGQGTLVTVSS VL: QSVLTQPPSASGTPGQRVTISCSGSSSNIGNNAVNWYQQLPGTAPKLLIYYDDLLPSGVPDRFSGSKSGTSASLAISGLRSEDEADYYCSAWDDSLNGVVFGGGTKLTVLG
93.6 | 1.2 | 46.1 | 94 | 70 | 3.9 | 0.41 | 6.5 | 1.8 | 4.1 | 84.9 | 0.58 | 5 | – | TPP-18068 (antibody, mouse IgG1, mIgG1, Lambda) heavy: EVQLLESGGGLVQPGGSLRLSCAASGFTFSSYGMHWVRQAPGKGLEWVSVISYDGSYKYYADSVKGRFTISRDNSKNTLYLQMNSLRAEDTAVYYCAAGVPDYWGQGTLVTVSSAKTTPPSVYPLAPGSAAQTNSMVTLGCLVKGYFPEPVTVTWNSGSLSSGVHTFPAVLQSDLYTLSSSVTVPSSTWPSETVTCNVAHPASSTKVDKKIVPRDCGCKPCICTVPEVSSVFIFPPKPKDVLTITLTPKVTCVVVDISKDDPEVQFSWFVDDVEVHTAQTQPREEQFNSTFRSVSELPIMHQDWLNGKEFKCRVNSAAFPAPIEKTISKTKGRPKAPQVYTIPPPKEQMAKDKVSLTCMITDFFPEDITVEWQWNGQPAENYKNTQPIMDTDGSYFVYSKLNVQKSNWEAGNTFTCSVLHEGLHNHHTEKSLSHSPGK light: QSVLTQPPSASGTPGQRVTISCTGSSSNIGAGYDVHWYQQLPGTAPKLLIYSNNERPSGVPDRFSGSKSGTSASLAISGLRSEDEADYYCAAWDDSLNGPVFGGGTKLTVLGQPKSSPSVTLFPPSSEELETNKATLVCTITDFYPGVVTVDWKVDGTPVTQGMETTQPSKQSNNKYMASSYLTLTARAWERHSSYSCQVTHEGHTVEKSLSRADCS
102 | 2 | 101 | 99.9 | 101 | – | 0.0017 | 4.1 | 2 | 1.7 | – | 0.0034 | 0.0022 | 0.0019 | TPP-29603 (bispecific antibody, IgG1, scFv-kih-mIgG1; bispecific comprising CDRs of TPP-29528 and TPP-29519) chain 1: QVQLVESGGGVVQPGRSLRLSCAASGFTFSHYDMHWVRQAPGKGLEWVAVISYHGSVKFYADSVKGRFTISRDNSKNTLYLQMNSLRAEDTAVYYCARTPGFHFDYWGQGTLVTVSSGGGGSGGGGSGGGGSQSVLTQPPSASGTPGQRVTISCSGSSSNIGSNYVSWYQQLPGTAPKLLIYYDDLRPSGVPDRFSGSKSGTSASLAISGLRSEDEADYYCSAWDDSLSGVVFGGGTKLTVLGGGGSGGGGSGGGGSGVECPPCPAPPVAGPSVFIFPPKPKDVLTITLTPKVTCVVVDISKDDPEVQFSWFVDDVEVHTAQTQPREEQFNSTFRSVSELPIMHQDWLNGKEFKCRVNSAAFPAPIEKTISKTKGRPKAPQVYTIPPCKEQMAKDKVSLWCMITDFFPEDITVEWQWNGQPAENYKNTQPIMDTDGSYFVYSKLNVQKSNWEAGNTFTCSVLHEGLHNHHTEKSLSHSPGK chain 2: EVQLLESGGGLVQPGGSLRLSCAASGFTFSSYGMHWVRQAPGKGLEWVAVISYDGSYKYYADSVKGRFTISRDNSKNTLYLQMNSLRAEDTAVYYCAAGVPDYWGQGTLVTVSSGGGGSGGGGSGGGGSQSVLTQPPSASGTPGQRVTISCSGSSSNIGSDYDVHWYQQLPGTAPKLLIYSNEERPSGVPDRFSGSKSGTSASLAISGLRSEDEADYYCSAWDSSLSGPVFGGGTKLTVLGGGGSGGGGSGGGGSGVECPPCPAPPVAGPSVFIFPPKPKDVLTITLTPKVTCVVVDISKDDPEVQFSWFVDDVEVHTAQTQPREEQFNSTFRSVSELPIMHQDWLNGKEFKCRVNSAAFPAPIEKTISKTKGRPKAPQVCTIPPPKEQMAKDKVSLSCAITDFFPEDITVEWQWNGQPAENYKNTQPIMDTDGSYFVVSKLNVQKSNWEAGNTFTCSVLHEGLHNHHTEKSLSHSPGK
99.6 | 1.4 | 99.1 | 97.6 | 100 | – | < 0.001 | 2 | ~1.2 | 0.75 | – | < 0.001 | < 0.001 | < 0.001 | TPP-29697 (bispecific antibody, IgG1, scFv-kih-hIgG1 with Fc-silencing mutations; bispecific comprising CDRs of TPP-29528 and TPP-29519) chain 1: QVQLVESGGGVVQPGRSLRLSCAASGFTFSHYDMHWVRQAPGKGLEWVAVISYHGSVKFYADSVKGRFTISRDNSKNTLYLQMNSLRAEDTAVYYCARTPGFHFDYWGQGTLVTVSSGGGGSGGGGSGGGGSQSVLTQPPSASGTPGQRVTISCSGSSSNIGSNYVSWYQQLPGTAPKLLIYYDDLRPSGVPDRFSGSKSGTSASLAISGLRSEDEADYYCSAWDDSLSGVVFGGGTKLTVLGGGGSGGGGSGGGGSGVECPPCPAPPVAGPSVFLFPPKPKDTLMISRTPEVTCVVVGVSHEDPEVKFNWYVDGVEVHNAKTKPREEQYNSTYRVVSVLTVLHQDWLNGKEYKCKVSNKQLPSPIEKTISKAKGQPREPQVYTLPPCRDELTKNQVSLWCLVKGFYPSDIAVEWESNGQPENNYKTTPPVLDSDGSFFLYSKLTVDKSRWQQGNVFSCSVMHEALHNHYTQKSLSLSPGK chain 2: EVQLLESGGGLVQPGGSLRLSCAASGFTFSSYGMHWVRQAPGKGLEWVAVISYDGSYKYYADSVKGRFTISRDNSKNTLYLQMNSLRAEDTAVYYCAAGVPDYWGQGTLVTVSSGGGGSGGGGSGGGGSQSVLTQPPSASGTPGQRVTISCSGSSSNIGSDYDVHWYQQLPGTAPKLLIYSNEERPSGVPDRFSGSKSGTSASLAISGLRSEDEADYYCSAWDSSLSGPVFGGGTKLTVLGGGGSGGGGSGGGGSGVECPPCPAPPVAGPSVFLFPPKPKDTLMISRTPEVTCVVVGVSHEDPEVKFNWYVDGVEVHNAKTKPREEQYNSTYRVVSVLTVLHQDWLNGKEYKCKVSNKQLPSPIEKTISKAKGQPREPQVCTLPPSRDELTKNQVSLSCAVKGFYPSDIAVEWESNGQPENNYKTTPPVLDSDGSFFLVSKLTVDKSRWQQGNVFSCSVMHEALHNHYTQKSLSLSPGK
